The values that follow come from patent USRE44022 (COMMISSARIAT A L ENERGIE ATOMIQUE, dated 2013).

Square brackets hold non-standard residues; d marks the D form.

B1: P23 (peptide)
peptide: cyclo([dY]PRIKPHQ)
SMILES: CC[C@H](C)[C@@H]1NC(=O)[C@H](CCCNC(=N)N)NC(=O)[C@@H]2CCCN2C(=O)[C@@H](Cc2ccc(O)cc2)NC(=O)[C@H](CCC(N)=O)NC(=O)[C@H](Cc2c[nH]cn2)NC(=O)[C@@H]2CCCN2C(=O)[C@H](CCCCN)NC1=O
B2: P24 (peptide)
peptide: GRIKPH
modifications: cyclic (cyclo, ends of the linear peptide coupled)
notes: Cyclopeptide; also called cyclo(Gly-Arg-Ile-Lys-Pro-His)
B3: P20 (peptide)
peptide: cyclo([dF]PQIMRIKPHQGQHIG)
SMILES: CC[C@H](C)[C@@H]1NC(=O)[C@H](Cc2c[nH]cn2)NC(=O)[C@H](CCC(N)=O)NC(=O)CNC(=O)[C@H](CCC(N)=O)NC(=O)[C@H](Cc2c[nH]cn2)NC(=O)[C@@H]2CCCN2C(=O)[C@H](CCCCN)NC(=O)[C@H]([C@@H](C)CC)NC(=O)[C@H](CCCNC(=N)N)NC(=O)[C@H](CCSC)NC(=O)[C@H]([C@@H](C)CC)NC(=O)[C@H](CCC(N)=O)NC(=O)[C@@H]2CCCN2C(=O)[C@@H](Cc2ccccc2)NC(=O)CNC1=O
notes: Cyclopeptide
B4: P16 (peptide)
peptide: RIKPHQG
modifications: cyclic (cyclo, ends of the linear peptide coupled)
notes: Cyclopeptide; also called cyclo(Arg-Ile-Lys-Pro-His-Gln-Gly)
B5: P11 (peptide)
peptide: cyclo([dF]PQIMRIKPHQGQHIGE)
SMILES: CC[C@H](C)[C@@H]1NC(=O)[C@H](Cc2c[nH]cn2)NC(=O)[C@H](CCC(N)=O)NC(=O)CNC(=O)[C@H](CCC(N)=O)NC(=O)[C@H](Cc2c[nH]cn2)NC(=O)[C@@H]2CCCN2C(=O)[C@H](CCCCN)NC(=O)[C@H]([C@@H](C)CC)NC(=O)[C@H](CCCNC(=N)N)NC(=O)[C@H](CCSC)NC(=O)[C@H]([C@@H](C)CC)NC(=O)[C@H](CCC(N)=O)NC(=O)[C@@H]2CCCN2C(=O)[C@@H](Cc2ccccc2)NC(=O)[C@H](CCC(=O)O)NC(=O)CNC1=O
notes: Cyclopeptide; 6); also called P11 (cyclic) peptide
B6: P21 (peptide)
peptide: cyclo([dF]PIMRIKPHQGQHI)
SMILES: CC[C@H](C)[C@@H]1NC(=O)[C@H](CCCNC(=N)N)NC(=O)[C@H](CCSC)NC(=O)[C@H]([C@@H](C)CC)NC(=O)[C@@H]2CCCN2C(=O)[C@@H](Cc2ccccc2)NC(=O)[C@H]([C@@H](C)CC)NC(=O)[C@H](Cc2c[nH]cn2)NC(=O)[C@H](CCC(N)=O)NC(=O)CNC(=O)[C@H](CCC(N)=O)NC(=O)[C@H](Cc2c[nH]cn2)NC(=O)[C@@H]2CCCN2C(=O)[C@H](CCCCN)NC1=O
notes: Cyclopeptide

The target of the first experiment is KDR receptor (VEGFR-2) (UniProt P35968). In words: displacement of 125I-VEGF from CHOm VEGFR2 cells. For orientation: Displacement assays read how much labelled ligand stays bound in the presence of the test substance.
Sequence of KDR receptor (VEGFR-2) (UniProt P35968) (P35968 20-1356 limits assumed): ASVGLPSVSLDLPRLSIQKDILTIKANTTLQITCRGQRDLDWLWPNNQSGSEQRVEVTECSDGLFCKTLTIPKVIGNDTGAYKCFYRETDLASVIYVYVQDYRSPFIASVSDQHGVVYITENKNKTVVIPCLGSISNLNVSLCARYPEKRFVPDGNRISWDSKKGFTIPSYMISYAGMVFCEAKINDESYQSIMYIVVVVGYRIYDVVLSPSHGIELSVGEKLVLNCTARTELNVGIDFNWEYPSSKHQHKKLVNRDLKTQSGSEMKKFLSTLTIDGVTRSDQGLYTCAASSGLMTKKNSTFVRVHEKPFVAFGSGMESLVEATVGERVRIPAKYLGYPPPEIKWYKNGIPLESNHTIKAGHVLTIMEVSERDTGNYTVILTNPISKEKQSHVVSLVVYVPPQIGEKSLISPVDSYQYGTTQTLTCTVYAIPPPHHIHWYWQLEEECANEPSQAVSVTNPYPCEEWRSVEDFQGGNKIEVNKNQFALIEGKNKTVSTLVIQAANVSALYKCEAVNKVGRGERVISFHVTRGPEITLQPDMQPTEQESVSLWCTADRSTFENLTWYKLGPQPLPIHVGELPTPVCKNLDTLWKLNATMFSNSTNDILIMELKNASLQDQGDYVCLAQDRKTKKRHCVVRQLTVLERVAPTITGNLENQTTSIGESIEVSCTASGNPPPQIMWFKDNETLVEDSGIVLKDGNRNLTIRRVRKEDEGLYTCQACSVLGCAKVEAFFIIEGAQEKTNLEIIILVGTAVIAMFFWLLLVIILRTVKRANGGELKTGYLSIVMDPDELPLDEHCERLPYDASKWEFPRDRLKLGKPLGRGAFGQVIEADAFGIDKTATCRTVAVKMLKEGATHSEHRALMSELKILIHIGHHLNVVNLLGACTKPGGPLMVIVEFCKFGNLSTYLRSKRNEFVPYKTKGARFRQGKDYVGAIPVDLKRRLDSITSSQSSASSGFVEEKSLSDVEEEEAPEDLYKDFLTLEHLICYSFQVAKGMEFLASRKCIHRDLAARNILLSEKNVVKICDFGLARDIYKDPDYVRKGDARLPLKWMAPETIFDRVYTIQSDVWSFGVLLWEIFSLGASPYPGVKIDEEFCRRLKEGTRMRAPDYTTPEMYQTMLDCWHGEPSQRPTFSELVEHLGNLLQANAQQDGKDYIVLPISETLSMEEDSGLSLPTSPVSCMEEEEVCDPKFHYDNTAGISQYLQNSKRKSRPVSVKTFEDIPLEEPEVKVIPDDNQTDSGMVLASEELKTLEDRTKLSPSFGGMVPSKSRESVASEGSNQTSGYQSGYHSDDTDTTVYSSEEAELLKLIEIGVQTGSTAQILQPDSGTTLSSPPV
Take B1: the concentration for half-maximal inhibition (IC50) – broadly, the midpoint of a concentration-inhibition curve – worked out at 8 µM.

The next experiment deals with T1, KDR receptor (VEGFR-2) (UniProt P35968 20-1356, limits assumed).
T1 construct: whole, on cells; also called kinase domain receptor; VEGF receptor
T1 sequence (P35968 20-1356 limits assumed): as above
As to the kind of experiment: displacement of 125I-VEGF from CHOm VEGFR2 cells.
PRIKPHQGQH (cyclic (cyclo, ends of the linear peptide coupled), Cyclopeptide) [P9] displayed a 50% inhibitory concentration (IC50) of 300 µM.

Regarding B2, the IC50 is 8 µM.

Molecule QIMRIKPHQGQHIGE (cyclic (cyclo, cyclised on the solid phase, method B), Cyclopeptide) [P19] showed a concentration for half-maximal inhibition (IC50) of 5 µM.

For the molecule B3, the IC50 is 10 µM.

In the case of B4, the IC50 was found to be 32 µM.

In turn, B5 registered a concentration for half-maximal inhibition (IC50) of 2 µM.

With B6, the IC50 was determined as 200 µM.

As to GQIMRIKPHQGQHIGE (cyclic (cyclo, ends of the linear peptide coupled), Cyclopeptide) [P12], the IC50 amounted to 300 µM.

The molecule PRIKPHQG (cyclic (cyclo, ends of the linear peptide coupled), Cyclopeptide) [P17] yielded an IC50 of 10 µM.

With GRIKPHQGH (cyclic (cyclo, ends of the linear peptide coupled), Cyclopeptide) [P8], the IC50 was 200 µM.

In the next experiment the target is T1, KDR receptor (VEGFR-2). In words: cell-based or functional assay.
Turning to B5, the “Migration (IC50)” value was 30 µM and the “Proliferation (IC50)” value turned out to be 7 µM.
